# Reference: PMC10694767 (Cell Reports Medicine, 2023)
# T1: virion-encoded gp42 expressed on the cell surface of EBV-positive CNE2 cells (Epstein-Barr virus (HHV-4); strain …)
# T1 chain: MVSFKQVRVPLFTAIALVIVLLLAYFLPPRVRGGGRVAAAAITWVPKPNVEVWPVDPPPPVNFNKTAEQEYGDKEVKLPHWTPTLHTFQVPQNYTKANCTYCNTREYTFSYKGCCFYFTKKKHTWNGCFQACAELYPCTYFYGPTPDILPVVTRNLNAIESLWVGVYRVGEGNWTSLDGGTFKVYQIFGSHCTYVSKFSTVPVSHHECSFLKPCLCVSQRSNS
# B1: 5E3 (anti-gp42 rabbit mAb, constant regions replaced with human IgG1) (antibody, V domains shown)
# VH: QPVEESGGRLVTPGTPLTLTCTVSGFSLSTYAMSWVRQAPGKGLEWIGTISASDTTYFANWTKGRFTISKASTTVDLKITSPTTEDTATFFCARFSAYESNRDYFDTFDPWGPGTLVTVSS
# VL: DVVMTQTPSPVSAAVGGTVTIKCQASQNIYRDLAWYQQNPGQPPKLLIYGASNLASGVPSRFSGSGSGTEYILTISDLECADAATYYCQCSAYGSGYAAHAFGGGTKVDIK
# B2: 5E3 Fab (Fab, V domains shown)
# VH: QPVEESGGRLVTPGTPLTLTCTVSGFSLSTYAMSWVRQAPGKGLEWIGTISASDTTYFANWTKGRFTISKASTTVDLKITSPTTEDTATFFCARFSAYESNRDYFDTFDPWGPGTLVTVSS
# VL: DVVMTQTPSPVSAAVGGTVTIKCQASQNIYRDLAWYQQNPGQPPKLLIYGASNLASGVPSRFSGSGSGTEYILTISDLECADAATYYCQCSAYGSGYAAHAFGGGTKVDIK
# B3: 3E8 (anti-gp42 rabbit mAb, constant regions replaced with human IgG1) (antibody, V domains shown)
# VH: QPVKESGGRLVTPGTPLTLTCTASGFSLSSYWMSWVRQARGKGLEWIGTATAGGSAWYASWAKGRFTISRTSTTVELRMTSLTTEDTATYFCARDPPGHSGLWGRGTLVTVSS
# VL: DLVMTQTPASVEAAVGGTVTIKCQASESIGNALAWYQQKPGQPPKLLIYDTSNLASGVSSRFRGSGSGTQFTLTISDLECADAATYYCQTYYYSGVTTTYQAFGGGTEVDVK
# B4: 3E8 Fab (Fab, V domains shown)
# VH: QPVKESGGRLVTPGTPLTLTCTASGFSLSSYWMSWVRQARGKGLEWIGTATAGGSAWYASWAKGRFTISRTSTTVELRMTSLTTEDTATYFCARDPPGHSGLWGRGTLVTVSS
# VL: DLVMTQTPASVEAAVGGTVTIKCQASESIGNALAWYQQKPGQPPKLLIYDTSNLASGVSSRFRGSGSGTQFTLTISDLECADAATYYCQTYYYSGVTTTYQAFGGGTEVDVK
# B5: 10E4 (anti-gHgL rabbit mAb, constant regions replaced with human IgG1) (antibody, V domains shown)
# VH: QQVKESGGRLVTPGTPLTLTCTASGFSLSTYWMSWVRQAPGKGLEYIGVIGGSGSTYYASWAKGRFTISKTSTTVDLKITSPTTEDTATYFCARDSGAGVRFRFWGPGTLVTVSS
# VL: DLVMTQTPASVEAGVGGTVTINCQASENIGSRLAWYQQKPGQPPKLLIYRASTLESGVPSRFKGSGSGTEFTLTISDLECADAATYYCQCTYGVSITINYGNDFGGGTEVVVK
# B6: 10E4 Fab (Fab, V domains shown)
# VH: QQVKESGGRLVTPGTPLTLTCTASGFSLSTYWMSWVRQAPGKGLEYIGVIGGSGSTYYASWAKGRFTISKTSTTVDLKITSPTTEDTATYFCARDSGAGVRFRFWGPGTLVTVSS
# VL: DLVMTQTPASVEAGVGGTVTINCQASENIGSRLAWYQQKPGQPPKLLIYRASTLESGVPSRFKGSGSGTEFTLTISDLECADAATYYCQCTYGVSITINYGNDFGGGTEVVVK
# B7: 6H2 (anti-gHgL mAb, constant regions replaced with human IgG1) (antibody, V domains shown)
# VH: EVKLLESGGGLVQPGGSLKLSCAASGFDFSRYWMTWVRQAPGQGLEWIGEINPDSSTINYTPSLKDKFIISRDNAKNTLYLQVSKLRSEDTALYYCARSPYYYGSSYDVWGAGTAVTVSS
# VL: DIVMSQSPSSLAVSAGEKVTMNCKSSQSLLNSRTRKNYLAWYQQKPGQSPKLLIYWASTRESGVPDRFTGSGSGTDFTLTISSVQAEDLAFYYCKQSYNLPTFGGGTKLEIK
# B8: 6H2 Fab (Fab, V domains shown)
# VH: EVKLLESGGGLVQPGGSLKLSCAASGFDFSRYWMTWVRQAPGQGLEWIGEINPDSSTINYTPSLKDKFIISRDNAKNTLYLQVSKLRSEDTALYYCARSPYYYGSSYDVWGAGTAVTVSS
# VL: DIVMSQSPSSLAVSAGEKVTMNCKSSQSLLNSRTRKNYLAWYQQKPGQSPKLLIYWASTRESGVPDRFTGSGSGTDFTLTISSVQAEDLAFYYCKQSYNLPTFGGGTKLEIK
# Columns and labels:
# [1] = biological target: T1, virion-encoded gp42 expressed on the …; assay: flow cytometry on cells
# [2] = biological target: T2, gHgL-gp42 complex (soluble gHgL with soluble gp42) (Epstein-Barr virus (HHV-4), strain M81, strain); assay: SPR
# [3] = biological target: T3, soluble EBV gp42 (ectodomain, aa 34-223) (Epstein-Barr virus, strain M81, UniProt P03205); assay: SPR
# [4] = biological target: T3, soluble EBV gp42 (ectodomain, aa 34-223); assay: cell-based or functional assay
# [5] = biological target: T3, soluble EBV gp42 (ectodomain, aa 34-223); assay: cryo-EM structure
# [6] = biological target: T2, gHgL-gp42 complex (soluble gHgL with …); assay: SEC
# [7] = biological target: virion-encoded gHgL expressed on the cell surface of EBV-positive CNE2 cells (Epstein-Barr virus (HHV-4), strain in …); assay: flow cytometry on cells
Binder,binding result [2],binding result [6],other results
B1,binds,,binding result [1]: binds; Kd [3]: 0.39 nM; IC50 of neutralisation of EBV infection of Akata B cells; blocks gp42:HLA-II [4]: 0.2 µg/mL
B2,,binds,binding result [5]: binds
B3,binds,,binding result [1]: binds; Kd [3]: 0.42 nM
B4,,binds,
B5,binds,,binding result [7]: binds
B6,,binds,
B7,binds,,binding result [7]: binds
B8,,binds,
